Data: patent US20220363757A1

How the values were obtained:
Assay in all cases: SPR, Fab over captured mutant LAG-3-Fc
[1] = biological target: human LAG-3 domain 1-2 Fc fusion, chimeric construct #10 (mutated region AA 70-77) (human) (UniProt P18627)
[2] = biological target: human LAG-3 domain 1-2 Fc fusion, chimeric construct #11 (mutated region AA 74-82) (human) (UniProt P18627)
[3] = biological target: human LAG-3 domain 1-2 Fc fusion, chimeric construct #15 (mutated region AA 95-100) (human) (UniProt P18627)
[4] = biological target: human LAG-3 domain 1-2 Fc fusion, chimeric construct #18 (mutated region AA 114-119) (human) (UniProt P18627)
[5] = biological target: human LAG-3 domain 1-2 Fc fusion, chimeric construct #19 (mutated region AA 118-127) (human) (UniProt P18627)
[6] = biological target: human LAG-3 domain 1-2 Fc fusion, chimeric construct #20 (mutated region AA 123-131) (human) (UniProt P18627)
[7] = biological target: human LAG-3 domain 1-2 Fc fusion, chimeric construct #21 (mutated region AA 128-137) (human) (UniProt P18627)
[8] = biological target: human LAG-3 domain 1-2 Fc fusion, chimeric construct #26 (mutated region AA 157-161) (human) (UniProt P18627)
[9] = biological target: human LAG-3 domain 1-2 Fc fusion, chimeric construct #5 (mutated region AA 46-51) (human) (UniProt P18627)
[10] = biological target: human LAG-3 domain 1-2 Fc fusion, chimeric construct #9 (mutated region AA 66-71) (human) (UniProt P18627)
[11] = biological target: human LAG-3 domain 1-2 Fc fusion, point mutation #11 L56A (human) (UniProt P18627)
[12] = biological target: human LAG-3 domain 1-2 Fc fusion, point mutation #18 P67A (human) (UniProt P18627)
[13] = biological target: human LAG-3 domain 1-2 Fc fusion, point mutation #19 D68A (human) (UniProt P18627)
[14] = biological target: human LAG-3 domain 1-2 Fc fusion, point mutation #22 A75S (human) (UniProt P18627)
[15] = biological target: human LAG-3 domain 1-2 Fc fusion, point mutation #23 P76A (human) (UniProt P18627)
[16] = biological target: human LAG-3 domain 1-2 Fc fusion, point mutation #26 P79A (human) (UniProt P18627)
[17] = biological target: human LAG-3 domain 1-2 Fc fusion, point mutation #29 P82A (human) (UniProt P18627)
[18] = biological target: human LAG-3 domain 1-2 Fc fusion, point mutation #3 P43A (human) (UniProt P18627)
[19] = biological target: human LAG-3 domain 1-2 Fc fusion, point mutation #30 G83A (human) (UniProt P18627)
[20] = biological target: human LAG-3 domain 1-2 Fc fusion, point mutation #32 H85A (human) (UniProt P18627)
[21] = biological target: human LAG-3 domain 1-2 Fc fusion, point mutation #37 S90A (human) (UniProt P18627)
[22] = biological target: human LAG-3 domain 1-2 Fc fusion, point mutation #4 S45A (human) (UniProt P18627)
[23] = biological target: human LAG-3 domain 1-2 Fc fusion, point mutation #46 Y99A (human) (UniProt P18627)
[24] = biological target: human LAG-3 domain 1-2 Fc fusion, point mutation #48 V101A (human) (UniProt P18627)
[25] = biological target: human LAG-3 domain 1-2 Fc fusion, point mutation #51 G107A (human) (UniProt P18627)
[26] = biological target: human LAG-3 domain 1-2 Fc fusion, point mutation #52 G108A (human) (UniProt P18627)
[27] = biological target: human LAG-3 domain 1-2 Fc fusion, point mutation #55 S111A (human) (UniProt P18627)
[28] = biological target: human LAG-3 domain 1-2 Fc fusion, point mutation #57 R113A (human) (UniProt P18627)
[29] = biological target: human LAG-3 domain 1-2 Fc fusion, point mutation #58 P115A (human) (UniProt P18627)
[30] = biological target: human LAG-3 domain 1-2 Fc fusion, point mutation #61 R119A (human) (UniProt P18627)
[31] = biological target: human LAG-3 domain 1-2 Fc fusion, point mutation #70 G130A (human) (UniProt P18627)
[32] = biological target: human LAG-3 domain 1-2 Fc fusion, point mutation #73 R137A (human) (UniProt P18627)
[33] = biological target: human LAG-3 domain 1-2 Fc fusion, point mutation #77 R148A (human) (UniProt P18627)

Sequence of human LAG-3 domain 1-2 Fc fusion, chimeric construct #5 (mutated region AA 46-51) (human) (P18627 other isoform, or with tags, fused parts or gaps mutant): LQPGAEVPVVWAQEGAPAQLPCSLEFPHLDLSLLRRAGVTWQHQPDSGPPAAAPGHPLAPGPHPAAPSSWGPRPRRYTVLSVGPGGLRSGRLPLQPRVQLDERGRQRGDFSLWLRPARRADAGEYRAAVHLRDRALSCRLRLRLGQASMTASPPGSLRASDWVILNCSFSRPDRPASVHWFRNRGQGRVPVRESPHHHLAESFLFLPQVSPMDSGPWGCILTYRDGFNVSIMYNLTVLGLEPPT
Sequence of human LAG-3 domain 1-2 Fc fusion, point mutation #32 H85A (human) (P18627 23-266 H85A): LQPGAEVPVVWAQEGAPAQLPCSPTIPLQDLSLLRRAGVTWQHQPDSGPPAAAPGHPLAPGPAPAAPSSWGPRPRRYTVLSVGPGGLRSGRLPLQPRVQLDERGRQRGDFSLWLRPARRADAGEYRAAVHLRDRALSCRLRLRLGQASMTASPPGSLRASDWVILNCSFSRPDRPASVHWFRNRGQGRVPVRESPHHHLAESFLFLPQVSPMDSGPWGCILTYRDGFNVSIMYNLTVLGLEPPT
Sequence of human LAG-3 domain 1-2 Fc fusion, chimeric construct #19 (mutated region AA 118-127) (human) (P18627 other isoform, or with tags, fused parts or gaps mutant): as the sequence (P18627 23-266 H85A) above, with A63H, P96S, R97H, D101E, E102K, R105P counted along it
Sequence of human LAG-3 domain 1-2 Fc fusion, point mutation #18 P67A (human) (P18627 23-266 P67A): as the sequence (P18627 23-266 H85A) above, with P45A, A63H counted along it
Sequence of human LAG-3 domain 1-2 Fc fusion, point mutation #58 P115A (human) (P18627 23-266 P115A): as the sequence (P18627 23-266 H85A) above, with A63H, P93A counted along it
Sequence of human LAG-3 domain 1-2 Fc fusion, point mutation #11 L56A (human) (P18627 23-266 L56A): as the sequence (P18627 23-266 H85A) above, with L34A, A63H counted along it
Sequence of human LAG-3 domain 1-2 Fc fusion, point mutation #52 G108A (human) (P18627 23-266 G108A): as the sequence (P18627 23-266 H85A) above, with A63H, G86A counted along it
Sequence of human LAG-3 domain 1-2 Fc fusion, point mutation #46 Y99A (human) (P18627 23-266 Y99A): as the sequence (P18627 23-266 H85A) above, with A63H, Y77A counted along it
Sequence of human LAG-3 domain 1-2 Fc fusion, chimeric construct #15 (mutated region AA 95-100) (human) (P18627 other isoform, or with tags, fused parts or gaps mutant): as the sequence (P18627 23-266 H85A) above, with A63H, R73G, R76S, T78V counted along it
Sequence of human LAG-3 domain 1-2 Fc fusion, point mutation #70 G130A (human) (P18627 23-266 G130A): as the sequence (P18627 23-266 H85A) above, with A63H, G108A counted along it
Sequence of human LAG-3 domain 1-2 Fc fusion, point mutation #30 G83A (human) (P18627 23-266 G83A): as the sequence (P18627 23-266 H85A) above, with G61A, A63H counted along it
Sequence of human LAG-3 domain 1-2 Fc fusion, point mutation #29 P82A (human) (P18627 23-266 P82A): as the sequence (P18627 23-266 H85A) above, with P60A, A63H counted along it
Sequence of human LAG-3 domain 1-2 Fc fusion, point mutation #26 P79A (human) (P18627 23-266 P79A): as the sequence (P18627 23-266 H85A) above, with P57A, A63H counted along it
Sequence of human LAG-3 domain 1-2 Fc fusion, point mutation #37 S90A (human) (P18627 23-266 S90A): as the sequence (P18627 23-266 H85A) above, with A63H, S68A counted along it
Sequence of human LAG-3 domain 1-2 Fc fusion, point mutation #23 P76A (human) (P18627 23-266 P76A): as the sequence (P18627 23-266 H85A) above, with P54A, A63H counted along it
Sequence of human LAG-3 domain 1-2 Fc fusion, point mutation #55 S111A (human) (P18627 23-266 S111A): as the sequence (P18627 23-266 H85A) above, with A63H, S89A counted along it
Sequence of human LAG-3 domain 1-2 Fc fusion, chimeric construct #26 (mutated region AA 157-161) (human) (P18627 other isoform, or with tags, fused parts or gaps mutant): as the sequence (P18627 23-266 H85A) above, with A63H, A135D, L136F, R139S counted along it
Sequence of human LAG-3 domain 1-2 Fc fusion, point mutation #57 R113A (human) (P18627 23-266 R113A): as the sequence (P18627 23-266 H85A) above, with A63H, R91A counted along it
Sequence of human LAG-3 domain 1-2 Fc fusion, chimeric construct #10 (mutated region AA 70-77) (human) (P18627 other isoform, or with tags, fused parts or gaps mutant limits assumed): as the sequence (P18627 23-266 H85A) above, with G48D, P49Q, A52S, A53I, G55A, A63H counted along it

Q: With Fab fragment of 25F7-Lag3.5 analogue as the substance, how does the KD mutant/KD wild type [1] read?
A: 1 fold

Q: What about the KD mutant/KD wild type [2] of the same substance?
A: 1.1 fold

Q: What about the KD mutant/KD wild type [3] of the same substance?
A: 1.5 fold

Q: What about the KD mutant/KD wild type [4] of the same substance?
A: 0.8 fold

Q: And the KD mutant/KD wild type [5]?
A: 0.8 fold

Q: What about the KD mutant/KD wild type [6] of the same substance?
A: 1.3 fold

Q: And the KD mutant/KD wild type [7]?
A: 1.4 fold

Q: What about the KD mutant/KD wild type [8] of the same substance?
A: 0.9 fold

Q: What about the KD mutant/KD wild type [9] of the same substance?
A: 1.3 fold

Q: What about the KD mutant/KD wild type [10] of the same substance?
A: 1.3 fold

Q: What about the KD mutant/KD wild type [11] of the same substance?
A: 0.9 fold

Q: What about the KD mutant/KD wild type [12] of the same substance?
A: 1.1 fold

Q: And the KD mutant/KD wild type [13]?
A: 0.9 fold

Q: What about the KD mutant/KD wild type [14] of the same substance?
A: 0.9 fold

Q: What about the KD mutant/KD wild type [15] of the same substance?
A: 0.9 fold

Q: And the KD mutant/KD wild type [16]?
A: 0.8 fold

Q: What about the KD mutant/KD wild type [17] of the same substance?
A: 0.9 fold

Q: What about the KD mutant/KD wild type [18] of the same substance?
A: 1.2 fold

Q: What about the KD mutant/KD wild type [19] of the same substance?
A: 1 fold

Q: What about the KD mutant/KD wild type [20] of the same substance?
A: 14.1 fold

Q: What about the KD mutant/KD wild type [21] of the same substance?
A: 1 fold

Q: And the KD mutant/KD wild type [22]?
A: 1 fold

Q: What about the KD mutant/KD wild type [23] of the same substance?
A: 1 fold

Q: What about the KD mutant/KD wild type [24] of the same substance?
A: 1 fold

Q: What about the KD mutant/KD wild type [25] of the same substance?
A: 0.8 fold

Q: What about the KD mutant/KD wild type [26] of the same substance?
A: 0.9 fold

Q: What about the KD mutant/KD wild type [27] of the same substance?
A: 0.9 fold

Q: And the KD mutant/KD wild type [28]?
A: 0.8 fold

Q: What about the KD mutant/KD wild type [29] of the same substance?
A: 1 fold

Q: And the KD mutant/KD wild type [30]?
A: 1.1 fold

Q: What about the KD mutant/KD wild type [31] of the same substance?
A: 1.3 fold

Q: What about the KD mutant/KD wild type [32] of the same substance?
A: 1 fold

Q: What about the KD mutant/KD wild type [33] of the same substance?
A: 1.2 fold
